Test [1] deals with T1, human GLP-2 receptor (hGLP2-R) (human, UniProt O95838).
T1 sequence: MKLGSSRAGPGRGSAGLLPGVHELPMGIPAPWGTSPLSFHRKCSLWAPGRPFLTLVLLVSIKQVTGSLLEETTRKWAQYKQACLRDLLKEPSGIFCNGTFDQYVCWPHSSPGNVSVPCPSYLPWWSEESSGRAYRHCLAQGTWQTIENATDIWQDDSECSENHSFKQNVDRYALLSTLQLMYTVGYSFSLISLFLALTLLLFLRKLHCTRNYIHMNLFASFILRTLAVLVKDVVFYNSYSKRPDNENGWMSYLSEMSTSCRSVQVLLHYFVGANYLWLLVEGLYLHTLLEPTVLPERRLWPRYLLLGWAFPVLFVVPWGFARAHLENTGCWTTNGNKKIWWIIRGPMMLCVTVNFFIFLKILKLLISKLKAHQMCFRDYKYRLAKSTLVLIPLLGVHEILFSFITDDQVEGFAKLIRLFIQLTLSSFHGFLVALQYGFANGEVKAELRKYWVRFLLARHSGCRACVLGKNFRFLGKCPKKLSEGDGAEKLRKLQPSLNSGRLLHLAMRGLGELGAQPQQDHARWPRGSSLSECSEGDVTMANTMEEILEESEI
Put plainly: cell-based or functional assay.

In test [2] the target is human glucagon-like peptide 1 receptor (GLP-1R) (human, UniProt P43220). The test is described as follows: cell-based or functional assay.

Numbered stars: 1 amine (or outer) side, 2 acyl side, 3 side chain; on linkers, the order of the positions; unused ones are H or OH. Square brackets hold non-standard residues; d marks the D form. Side chains are listed from the residue outwards. * marks the point of attachment. C18 diacid = O=C(O)CCCCCCCCCCCCCCCCC(=O)*; γGlu = O=C(O)[C@H](CCC(=O)[*:2])N[*:1]; Aib = CC(C)(N)C(=O)O

B1: Compound 21 (peptide)
peptide: H-H[Aib]EGTFSSELATILDK([γGlu-C18 diacid])QAARDFIAWLIAHKITD-OH
SMILES: CC[C@H](C)[C@H](NC(=O)[C@H](CC(C)C)NC(=O)[C@H](Cc1c[nH]c2ccccc12)NC(=O)[C@H](C)NC(=O)[C@@H](NC(=O)[C@H](Cc1ccccc1)NC(=O)[C@H](CC(=O)O)NC(=O)[C@H](CCCNC(=N)N)NC(=O)[C@H](C)NC(=O)[C@H](C)NC(=O)[C@H](CCC(N)=O)NC(=O)[C@H](CCCCNC(=O)CC[C@H](NC(=O)CCCCCCCCCCCCCCCCC(=O)O)C(=O)O)NC(=O)[C@H](CC(=O)O)NC(=O)[C@H](CC(C)C)NC(=O)[C@@H](NC(=O)[C@@H](NC(=O)[C@H](C)NC(=O)[C@H](CC(C)C)NC(=O)[C@H](CCC(=O)O)NC(=O)[C@H](CO)NC(=O)[C@H](CO)NC(=O)[C@H](Cc1ccccc1)NC(=O)[C@@H](NC(=O)CNC(=O)[C@H](CCC(=O)O)NC(=O)C(C)(C)NC(=O)[C@@H](N)Cc1c[nH]cn1)[C@@H](C)O)[C@@H](C)O)[C@@H](C)CC)[C@@H](C)CC)C(=O)N[C@@H](C)C(=O)N[C@@H](Cc1c[nH]cn1)C(=O)N[C@@H](CCCCN)C(=O)N[C@H](C(=O)N[C@H](C(=O)N[C@@H](CC(=O)O)C(=O)O)[C@@H](C)O)[C@@H](C)CC
Turning to B1, the “EC50 GLP-2 (nM), cAMP AlphaScreen” value in test [1] was determined as 0.27 nM. In test [2], the “EC50 GLP-1 (nM), cAMP AlphaScreen” value is 1.8 nM.

B2: Compound 22 (peptide)
peptide: H-H[Aib]EGSFTSELATILDK([γGlu-C18 diacid])QAARDFIAWLIAHKITD-OH
SMILES: CC[C@H](C)[C@H](NC(=O)[C@H](CC(C)C)NC(=O)[C@H](Cc1c[nH]c2ccccc12)NC(=O)[C@H](C)NC(=O)[C@@H](NC(=O)[C@H](Cc1ccccc1)NC(=O)[C@H](CC(=O)O)NC(=O)[C@H](CCCNC(=N)N)NC(=O)[C@H](C)NC(=O)[C@H](C)NC(=O)[C@H](CCC(N)=O)NC(=O)[C@H](CCCCNC(=O)CC[C@H](NC(=O)CCCCCCCCCCCCCCCCC(=O)O)C(=O)O)NC(=O)[C@H](CC(=O)O)NC(=O)[C@H](CC(C)C)NC(=O)[C@@H](NC(=O)[C@@H](NC(=O)[C@H](C)NC(=O)[C@H](CC(C)C)NC(=O)[C@H](CCC(=O)O)NC(=O)[C@H](CO)NC(=O)[C@@H](NC(=O)[C@H](Cc1ccccc1)NC(=O)[C@H](CO)NC(=O)CNC(=O)[C@H](CCC(=O)O)NC(=O)C(C)(C)NC(=O)[C@@H](N)Cc1c[nH]cn1)[C@@H](C)O)[C@@H](C)O)[C@@H](C)CC)[C@@H](C)CC)C(=O)N[C@@H](C)C(=O)N[C@@H](Cc1c[nH]cn1)C(=O)N[C@@H](CCCCN)C(=O)N[C@H](C(=O)N[C@H](C(=O)N[C@@H](CC(=O)O)C(=O)O)[C@@H](C)O)[C@@H](C)CC
As for B2, the “EC50 GLP-2 (nM), cAMP AlphaScreen” value in test [1] was determined as 0.2 nM. Moreover, in test [2], the “EC50 GLP-1 (nM), cAMP AlphaScreen” value came to 0.23 nM.

B3: Compound 17 (peptide)
peptide: H-H[Aib]EGTFSSELATILDK([γGlu-C18 diacid])QAARDFIAWLIQHKITD-OH
SMILES: CC[C@H](C)[C@H](NC(=O)[C@H](Cc1ccccc1)NC(=O)[C@H](CC(=O)O)NC(=O)[C@H](CCCNC(=N)N)NC(=O)[C@H](C)NC(=O)[C@H](C)NC(=O)[C@H](CCC(N)=O)NC(=O)[C@H](CCCCNC(=O)CC[C@H](NC(=O)CCCCCCCCCCCCCCCCC(=O)O)C(=O)O)NC(=O)[C@H](CC(=O)O)NC(=O)[C@H](CC(C)C)NC(=O)[C@@H](NC(=O)[C@@H](NC(=O)[C@H](C)NC(=O)[C@H](CC(C)C)NC(=O)[C@H](CCC(=O)O)NC(=O)[C@H](CO)NC(=O)[C@H](CO)NC(=O)[C@H](Cc1ccccc1)NC(=O)[C@@H](NC(=O)CNC(=O)[C@H](CCC(=O)O)NC(=O)C(C)(C)NC(=O)[C@@H](N)Cc1c[nH]cn1)[C@@H](C)O)[C@@H](C)O)[C@@H](C)CC)C(=O)N[C@@H](C)C(=O)N[C@@H](Cc1c[nH]c2ccccc12)C(=O)N[C@@H](CC(C)C)C(=O)N[C@H](C(=O)N[C@@H](CCC(N)=O)C(=O)N[C@@H](Cc1c[nH]cn1)C(=O)N[C@@H](CCCCN)C(=O)N[C@H](C(=O)N[C@H](C(=O)N[C@@H](CC(=O)O)C(=O)O)[C@@H](C)O)[C@@H](C)CC)[C@@H](C)CC
Regarding B3, in test [1], the “EC50 GLP-2 (nM), cAMP AlphaScreen” value was found to be 0.33 nM. Further, the “EC50 GLP-1 (nM), cAMP AlphaScreen” value in test [2] was found to be 0.9 nM.

B4: Compound 19 (peptide)
peptide: H-H[Aib]EGTFTSELATILDK([γGlu-C18 diacid])QAARDFIAWLIQHKITD-OH
SMILES: CC[C@H](C)[C@H](NC(=O)[C@H](Cc1ccccc1)NC(=O)[C@H](CC(=O)O)NC(=O)[C@H](CCCNC(=N)N)NC(=O)[C@H](C)NC(=O)[C@H](C)NC(=O)[C@H](CCC(N)=O)NC(=O)[C@H](CCCCNC(=O)CC[C@H](NC(=O)CCCCCCCCCCCCCCCCC(=O)O)C(=O)O)NC(=O)[C@H](CC(=O)O)NC(=O)[C@H](CC(C)C)NC(=O)[C@@H](NC(=O)[C@@H](NC(=O)[C@H](C)NC(=O)[C@H](CC(C)C)NC(=O)[C@H](CCC(=O)O)NC(=O)[C@H](CO)NC(=O)[C@@H](NC(=O)[C@H](Cc1ccccc1)NC(=O)[C@@H](NC(=O)CNC(=O)[C@H](CCC(=O)O)NC(=O)C(C)(C)NC(=O)[C@@H](N)Cc1c[nH]cn1)[C@@H](C)O)[C@@H](C)O)[C@@H](C)O)[C@@H](C)CC)C(=O)N[C@@H](C)C(=O)N[C@@H](Cc1c[nH]c2ccccc12)C(=O)N[C@@H](CC(C)C)C(=O)N[C@H](C(=O)N[C@@H](CCC(N)=O)C(=O)N[C@@H](Cc1c[nH]cn1)C(=O)N[C@@H](CCCCN)C(=O)N[C@H](C(=O)N[C@H](C(=O)N[C@@H](CC(=O)O)C(=O)O)[C@@H](C)O)[C@@H](C)CC)[C@@H](C)CC
Regarding B4, the “EC50 GLP-2 (nM), cAMP AlphaScreen” value in test [1] was 0.23 nM. Also, in test [2], the “EC50 GLP-1 (nM), cAMP AlphaScreen” value was determined as 0.066 nM.

B5: Compound 18 (peptide)
peptide: H-H[Aib]EGSFTSELATILDK([γGlu-C18 diacid])QAARDFIAWLIQHKITD-OH
SMILES: CC[C@H](C)[C@H](NC(=O)[C@H](Cc1ccccc1)NC(=O)[C@H](CC(=O)O)NC(=O)[C@H](CCCNC(=N)N)NC(=O)[C@H](C)NC(=O)[C@H](C)NC(=O)[C@H](CCC(N)=O)NC(=O)[C@H](CCCCNC(=O)CC[C@H](NC(=O)CCCCCCCCCCCCCCCCC(=O)O)C(=O)O)NC(=O)[C@H](CC(=O)O)NC(=O)[C@H](CC(C)C)NC(=O)[C@@H](NC(=O)[C@@H](NC(=O)[C@H](C)NC(=O)[C@H](CC(C)C)NC(=O)[C@H](CCC(=O)O)NC(=O)[C@H](CO)NC(=O)[C@@H](NC(=O)[C@H](Cc1ccccc1)NC(=O)[C@H](CO)NC(=O)CNC(=O)[C@H](CCC(=O)O)NC(=O)C(C)(C)NC(=O)[C@@H](N)Cc1c[nH]cn1)[C@@H](C)O)[C@@H](C)O)[C@@H](C)CC)C(=O)N[C@@H](C)C(=O)N[C@@H](Cc1c[nH]c2ccccc12)C(=O)N[C@@H](CC(C)C)C(=O)N[C@H](C(=O)N[C@@H](CCC(N)=O)C(=O)N[C@@H](Cc1c[nH]cn1)C(=O)N[C@@H](CCCCN)C(=O)N[C@H](C(=O)N[C@H](C(=O)N[C@@H](CC(=O)O)C(=O)O)[C@@H](C)O)[C@@H](C)CC)[C@@H](C)CC
Consider B5, for which the “EC50 GLP-2 (nM), cAMP AlphaScreen” value in test [1] came out at 0.21 nM. Moreover, the “EC50 GLP-1 (nM), cAMP AlphaScreen” value in test [2] was 0.19 nM.

B6: Compound 20 (peptide)
peptide: H-H[Aib]EGTFSSELATILDK([γGlu-C18 diacid])QAARDFIAWLIEHKITD-OH
SMILES: CC[C@H](C)[C@H](NC(=O)[C@H](Cc1ccccc1)NC(=O)[C@H](CC(=O)O)NC(=O)[C@H](CCCNC(=N)N)NC(=O)[C@H](C)NC(=O)[C@H](C)NC(=O)[C@H](CCC(N)=O)NC(=O)[C@H](CCCCNC(=O)CC[C@H](NC(=O)CCCCCCCCCCCCCCCCC(=O)O)C(=O)O)NC(=O)[C@H](CC(=O)O)NC(=O)[C@H](CC(C)C)NC(=O)[C@@H](NC(=O)[C@@H](NC(=O)[C@H](C)NC(=O)[C@H](CC(C)C)NC(=O)[C@H](CCC(=O)O)NC(=O)[C@H](CO)NC(=O)[C@H](CO)NC(=O)[C@H](Cc1ccccc1)NC(=O)[C@@H](NC(=O)CNC(=O)[C@H](CCC(=O)O)NC(=O)C(C)(C)NC(=O)[C@@H](N)Cc1c[nH]cn1)[C@@H](C)O)[C@@H](C)O)[C@@H](C)CC)C(=O)N[C@@H](C)C(=O)N[C@@H](Cc1c[nH]c2ccccc12)C(=O)N[C@@H](CC(C)C)C(=O)N[C@H](C(=O)N[C@@H](CCC(=O)O)C(=O)N[C@@H](Cc1c[nH]cn1)C(=O)N[C@@H](CCCCN)C(=O)N[C@H](C(=O)N[C@H](C(=O)N[C@@H](CC(=O)O)C(=O)O)[C@@H](C)O)[C@@H](C)CC)[C@@H](C)CC
For B6, the “EC50 GLP-2 (nM), cAMP AlphaScreen” value in test [1] was 0.37 nM. Further, the “EC50 GLP-1 (nM), cAMP AlphaScreen” value in test [2] worked out at 0.55 nM.
